From patent US20100009390A1, “MUTANT ANTIBODIES WITH HIGH AFFINITY FOR EGFR” (THE REGENTS OF THE UNIVERSITY OF CALIFORNIA, priority 2008, published 2010)
Where a chain is given by its changes, count along the chain named. Where “and” joins values, the source holds several entries; their conditions need not be identical. Identical values can stand only once. Like-named read-outs stand apart in the source and are kept apart here.

Columns and labels:
[1] = target: T1, epidermal growth factor receptor (EGFR) on tumor cells (human, UniProt P00533 25-1210); assay: flow cytometry, soluble monomeric scFv on A431 cells, 4 C, equilibrium
T1 construct: whole, on cells; also called EGFR on A431 cells; EGFR on MDAMB468 cells
Description: (§1) Cell binding was performed at 4° C. in FACS buffer in a volume calculated to ensure fivefold scFv excess and for a duration calculated to ensure that the reaction had reached equilibrium. After two washes with 200 μL of FACS buffer, cell-bound scFv was detected by the addition of 100 μl of 1 μg/ml biotinylated His probe (Santa Cruz Biotech.) and a 1:800 (v/v) dilution of streptavidin-PE (Biosource). After incubation at 4° C. for 30 min, the cells were washed twice and resuspended in PBS containing 4% (v/v) paraformaldehyde. Fluorescence was measured by flow cytometry in a FACS LSRII instrument (Becton Dickinson), and the median fluorescence intensity (MFI) values were fit to the equation: […]
(§2) To generate soluble scFv, the scFv genes were subcloned from pYD2 into the bacterial secretion vector pSYN1 (Schier et al (1995) Immunotechnology, 1:73-81), which directed the scFv to the bacterial periplasm using the pelB leader. The scFv was harvested from the bacterial periplasm and purified by immobilized metal-affinity chromatography as described (Id.). […] To ensure that the KD of monovalent scFv was determined, gel-filtration chromatography was performed as described (Schier and Marks (1996) Hum. Antibodies Hybridomas: 7: 97-105) to separate native monovalent scFv from dimeric scFv and aggregated scFv. scFv was used for cellular KD measurements immediately after gel-filtration.

MDAMB231 cells = assay: Uptake of EGFR immunoliposomes into cells of lower EGFR density; assay type: cell-based, human; conditions: for IL uptake into MDAMB231 cells compared to A431 cells: all scFv densities studied, 480,000 EGFR/cell
Description: (§3) scFv-mediated internalization of fluorescent immunoliposomes was analyzed and quantified by microscopy and flow cytometry. C10 scFv fragments were inserted into liposomes at ratios of 5, 10, 15, 30 and 60 μg scFv/μmol phospholipid (Mamot et al. (2003) Cancer Res. 63: 3154-3161). scFv densities of 16, 32, 48, 96 and 192 scFv/liposome were calculated on the basis of the molecular mass of scFv (26 kDa) and the approximate number of phospholipid molecules/liposome (80,000). The conjugation technology for scFv to Mal-PEG-DSPE is remarkably reproducible with an efficiency of 77.3(±3.1) % (range 75-82% over six batches) (Nellis et al. (2005) Biotechnol. Prog. 21: 205-220). […] For microscopy studies, 150,000 cells were incubated with 50 μM PL of untargeted and EGFR-targeted ILs labeled with DiIC18(3)-DS in a 12-well plate for 2 h at 37° C., followed by washing with PBS and further incubation at 37° C. for 2 h. The cells were then analyzed by using an inverted fluorescence microscope (Nikon Eclipse, TE300) with a 540/25 nm band-pass filter for excitation and a long-pass filter at 565 nm for emission. For quantitative uptake of immunoliposomes, 250,000 cells were incubated with EGFR-targeted ILs labeled with ADS645 in a six-well plate for 2 h at 37° C., washed with PBS, removed in trypsin solution and fluorescence quantified with a FACSAria instrument (Beckton Dickinson). To determine the effect of EGF competition on internalization of EGFR-targeted ILs, IL internalization was quantified as described above, except that 50 μM targeted ILs and cells were incubated with EGF concentrations ranging from 0.2-25 nM. ANOVA (analysis of variance) was used to analyze the statistical differences of the quantified uptake.
To determine the impact of receptor density on IL uptake, we measured the uptake of the different ILs into MDAMB231 cells which express 480,000 EGFR/cell as determined by flow cytometry using Quantum Simply Cellular anti-Human IgG beads (Bangs Laboratories Inc.). […] Uptake into MDAMB231 cells increased with increasing scFv density, reaching a plateau at an IL scFv density of 74 scFv/IL for P2/4 scFv and at 37 scFv/IL for 2224 scFv (FIG. 6C).

[2] = target: T2, A431 cells expressing EGFR (Homo sapiens, UniProt P00533); assay: Measurement of scFv affinity for cells expressing EGFR (flow cytometry); assay type: binding; conditions: soluble monovalent scFv, 4° C.
T2 construct: Human squamous carcinoma A431 cells expressing EGFR; endogenous in cells; host or cells: A431 epidermal (squamous) carcinoma cells
Description: Human squamous carcinoma A431 cells expressing EGFR were grown to 80-90% confluence in RPMI medium supplemented with 10% fetal bovine serum and harvested by trypsinization. […] Cell binding was performed at 4° C. in FACS buffer in a volume calculated to ensure fivefold scFv excess and for a duration calculated to ensure that the reaction had reached equilibrium. After two washes with 200 μL of FACS buffer, cell-bound scFv was detected by the addition of 100 μl of 1 μg/ml biotinylated His probe (Santa Cruz Biotech.) and a 1:800 (v/v) dilution of streptavidin-PE (Biosource). After incubation at 4° C. for 30 min, the cells were washed twice and resuspended in PBS containing 4% (v/v) paraformaldehyde. Fluorescence was measured by flow cytometry in a FACS LSRII instrument (Becton Dickinson), and the median fluorescence intensity (MFI) values were fit to the equation:
MFI=MFImin+MFImax([Ab]/(KD+[Ab])
using the software program Kaleidagraph as described previously (Benedict et al. (1997) J. Immunol. Methods, 201: 223-231).

[3] = test system: EGFR-over-expressing MDAMB468 cells; assay: Internalization/uptake of anti-EGFR immunoliposomes (microscopy, flow cytometry); assay type: cell-based, Human; conditions: 74 scFv/liposome; for endocytosis of ILs by fluorescence microscopy: MDAMB468
Description: as §3

biotinylated EGFR-ECD = target: T3, biotinylated EGFR-ECD (Homo sapiens, UniProt P00533); assay: Yeast-displayed scFv affinity for biotinylated EGFR-ECD by flow cytometry; assay type: binding; conditions: scFv displayed on yeast; EGFR-ECD only 10% immunoreactive; read-out: KD for biotin-EGFR ECD
T3 construct: Recombinant EGFR-ECD was expressed in HEK293 cells; biotin (chemical label, NHS-sulfo-LC-biotin on amines); made in house; host or cells: HEK293 cells
Description: (§4) Generally, six to eight different concentrations of biotinylated EGFR were used to span a range of concentrations from ten times above to ten times below the KD. Incubation volumes, times and yeast numbers were chosen to ensure that the studies were done in at least fivefold antigen excess and that equilibrium had been achieved (Razai et al. (2005) J. Mol. Biol. 351: 158-169). For anti-EGFR scFv, […] in 50 μl were incubated with biotinylated EGFR-ECD for 1 h at room temperature. […] Only yeast displaying scFv (as determined by binding of SV5 mAb) were gated for affinity measurements.

[4] = target: T4, MDAMB468 cells expressing EGFR (Homo sapiens, UniProt P00533); assay: Immunoliposome binding affinity for cells expressing EGFR (flow cytometry); conditions: read-out: Apparent KD of immunoliposomes
T4 construct: Human breast cancer MDAMB468 cells expressing EGFR; endogenous in cells; host or cells: MDAMB468 breast carcinoma cells
Description: Human breast cancer MDAMB468 cells expressing EGFR were grown to 80-90% confluence in L15 medium supplemented with 10% FBS and harvested by trypsinization. ILs labeled with DiIC18(3)-DS were incubated overnight with 10^4 cells at concentrations of IL ranging from 0.31-2.5 nM. The concentration of IL was converted from the concentration of phospholipid on the basis of the approximate number of phospholipid molecules per liposome (80,000). Cell binding was performed at 4° C. in FACS buffer in adequate volume to ensure a fivefold excess of ILs and that the reaction had come to equilibrium. After two washes with 200 μl of FACS buffer, the amount of cell-bound ILs was quantified by flow cytometry in a FACS LSRII (Becton Dickinson). Data analysis was the same as for the measurement of scFv KD.

[5] = target: MDAMB468 cells expressing intact EGFR (Homo sapiens, UniProt P00533); conditions: EGF competition
[6] = target: T1, epidermal growth factor receptor (EGFR) …; assay: flow cytometry, soluble scFv on A431 cells; this end is tied to P3/5 through the KD values of Table 2
Description: as §1, with “After” for “Cell binding was performed at 4° C. in FACS buffer in a volume calculated to ensure fivefold scFv excess and for a duration calculated to ensure that the reaction had reached equilibrium. After”
as §2

[7] = target: T5, biotinylated recombinant EGFR-ECD (UniProt P00533 25-645, limits assumed, biotinylated with NHS-sulfo-LC-biotin); assay: flow cytometry, yeast-displayed scFv, biotinylated EGFR-ECD, equilibrium
T5 construct: extracellular domain; The claims speak of human EGFR; also called biotin-EGFR ECD; biotinylated EGFR
Description: as §4

B1: anti-EGFR scFv C10 (scFv, V domains shown)
VH: EVQLVQSGAEVKKPGSSVKVSCKASGGTFSSYAISWVRQAPGQGLEWMGGIIPIFGTANYAQKFQGRVTITADESTSTAYMELSSLRSEDTAVYYCAREEGPYCSSTSCYGAFDIWGQGTLVTVSS
VL: QSVLTQDPAVSVALGQTVKITCQGDSLRSYFASWYQQKPGQAPTLVMYARNDRPAGVPDRFSGSKSGTSASLAISGLQSEDEADYYCAAWDDSLNGYLFGAGTKLTVL
notes: Soluble monomeric scFv from pSYN1 in E. coli (Ni-NTA purified, detected with a His probe) in the assays on cells; also called C10 scFv; wild-type C10 scFv
Kd [1]: 264 nM

B2: P2/4: C10 scFv mutant, Gly to Ala in VH CDR3 and Pro to Ala in VL FR1; SEQ ID NO:5 (protein)
scFv: B1 VH with G111A
modifications: Variable chain of single chain antibody.
IL scFv density at which uptake into MDAMB231 cells reaches a plateau (MDAMB231 cells): 74 scFv/IL | IL uptake into MDAMB231 cells compared to A431 cells (MDAMB231 cells): significantly less uptake | Kd [2]: 15 nM and 15.4 nM | IL uptake greater compared to C10 ([3]; IL 0.63 nM, flow cytometry): 24% | endocytosis of ILs by fluorescence microscopy [3]: endocytosed efficiently | Kd (biotinylated EGFR-ECD): 1800 nM | Kd ([4]; 37 scFv/liposome): 2.04 nM | Kd ([4]; 74 scFv/liposome): 0.4 nM | Kd ([4]; 148 scFv/liposome): 0.18 nM

B3: P3/5: C10 scFv mutant from the P3 sort gate; SEQ ID NO:11 (protein)
scFv: B1 VH with M48V, T69K, T76A
modifications: Variable chain of single chain antibody.
Kd [2]: 88 nM

B4: 2224: combined mutant scFv: P2/2 with the VH CDR3 Gly to Ala mutation from P2/4; SEQ ID NO:17 and 24 (protein)
scFv: B1 VL with F31L, M47T
modifications: Variable chain of single chain antibody.
IL scFv density at which uptake into MDAMB231 cells reaches a plateau (MDAMB231 cells): 37 scFv/IL | IL uptake into MDAMB231 cells compared to A431 cells (MDAMB231 cells): significantly less uptake | IC50 of ILs less than the scFv IC50 [5]: 20 fold | difference in IL uptake versus ILs from C10 or P2/4 scFv ([3]; IL 0.63 nM, flow cytometry): no statistically significant difference | endocytosis of ILs by fluorescence microscopy [3]: endocytosed efficiently

B5: C10 mutant scFv P3/5 (scFv, V domains shown)
VH: B1 VH with M48V, T69K, T76A
VL: B1 VL with F31L, M47T
notes: soluble His-tagged monomeric scFv on cells
Kd [1]: 88.2 nM | fold improvement in affinity compared to C10 scFv [6]: 3 to 18 fold

B6: combined C10 mutant scFv 2224 (scFv, V domains shown)
VH: B1 VH with S35G, T57I, T78S, G111A
VL: B1 VL with S79P
notes: P2/2 with the VH CDR3 Gly to Ala substitution of P2/4; soluble His-tagged monomeric scFv on cells
Kd [7]: 600 nM

B7: C10 mutant scFv P2/2 (scFv, V domains shown)
VH: B1 VH with S35G, T57I, T78S
VL: B1 VL with S79P
notes: as for B5
Kd [7]: 1800 nM | Kd [1]: 17 nM
